Results published in patent US20110059889A1 (SYNTONIX PHARMACEUTICALS, published 2011).
Where two headings read alike, the source gives them in different places. Bridge positions count the residues as written; N and C are the ends. Square brackets hold non-standard residues; d marks the D form. Ends that are not written are not given here. Pen = CC(C)(S)[C@H](N)C(=O)O; NMeA = CN[C@@H](C)C(=O)O

B1: Peptide No. 97 (peptide)
peptide: QRY[Pen]TGHFGGLYPCNGP-NH2
modifications: disulfide 4-14; N-terminus assumed
SMILES: CC(C)C[C@@H]1NC(=O)CNC(=O)CNC(=O)[C@H](Cc2ccccc2)NC(=O)[C@H](Cc2c[nH]cn2)NC(=O)CNC(=O)[C@H]([C@@H](C)O)NC(=O)[C@@H](NC(=O)[C@H](Cc2ccc(O)cc2)NC(=O)[C@H](CCCNC(=N)N)NC(=O)[C@@H](N)CCC(N)=O)C(C)(C)SSC[C@@H](C(=O)N[C@@H](CC(N)=O)C(=O)NCC(=O)N2CCC[C@H]2C(N)=O)NC(=O)[C@@H]2CCCN2C(=O)[C@H](Cc2ccc(O)cc2)NC1=O
B2: Peptide No. 98 (peptide)
peptide: QRW[Pen]TGHFGGLYPCNGP-NH2
modifications: disulfide 4-14; N-terminus assumed
SMILES: CC(C)C[C@@H]1NC(=O)CNC(=O)CNC(=O)[C@H](Cc2ccccc2)NC(=O)[C@H](Cc2c[nH]cn2)NC(=O)CNC(=O)[C@H]([C@@H](C)O)NC(=O)[C@@H](NC(=O)[C@H](Cc2c[nH]c3ccccc23)NC(=O)[C@H](CCCNC(=N)N)NC(=O)[C@@H](N)CCC(N)=O)C(C)(C)SSC[C@@H](C(=O)N[C@@H](CC(N)=O)C(=O)NCC(=O)N2CCC[C@H]2C(N)=O)NC(=O)[C@@H]2CCCN2C(=O)[C@H](Cc2ccc(O)cc2)NC1=O
B3: Peptide No. 195 (peptide)
peptide: QRF[Pen]GGHFGGLYPCNGP-NH2
modifications: disulfide 4-14; N-terminus assumed
SMILES: CC(C)C[C@@H]1NC(=O)CNC(=O)CNC(=O)[C@H](Cc2ccccc2)NC(=O)[C@H](Cc2c[nH]cn2)NC(=O)CNC(=O)CNC(=O)[C@@H](NC(=O)[C@H](Cc2ccccc2)NC(=O)[C@H](CCCNC(=N)N)NC(=O)[C@@H](N)CCC(N)=O)C(C)(C)SSC[C@@H](C(=O)N[C@@H](CC(N)=O)C(=O)NCC(=O)N2CCC[C@H]2C(N)=O)NC(=O)[C@@H]2CCCN2C(=O)[C@H](Cc2ccc(O)cc2)NC1=O
B4: Peptide No. 213 (peptide)
peptide: QRF[Pen][NMeA]GHFGGLYPCNGP-NH2
modifications: disulfide 4-14; N-terminus assumed
SMILES: CC(C)C[C@@H]1NC(=O)CNC(=O)CNC(=O)[C@H](Cc2ccccc2)NC(=O)[C@H](Cc2c[nH]cn2)NC(=O)CNC(=O)[C@H](C)N(C)C(=O)[C@@H](NC(=O)[C@H](Cc2ccccc2)NC(=O)[C@H](CCCNC(=N)N)NC(=O)[C@@H](N)CCC(N)=O)C(C)(C)SSC[C@@H](C(=O)N[C@@H](CC(N)=O)C(=O)NCC(=O)N2CCC[C@H]2C(N)=O)NC(=O)[C@@H]2CCCN2C(=O)[C@H](Cc2ccc(O)cc2)NC1=O
B5: Peptide No. 99 (peptide)
peptide: RF[Pen]TGHFGGLYPC-NH2
modifications: disulfide 3-13; N-terminus assumed
SMILES: CC(C)C[C@@H]1NC(=O)CNC(=O)CNC(=O)[C@H](Cc2ccccc2)NC(=O)[C@H](Cc2c[nH]cn2)NC(=O)CNC(=O)[C@H]([C@@H](C)O)NC(=O)[C@@H](NC(=O)[C@H](Cc2ccccc2)NC(=O)[C@@H](N)CCCNC(=N)N)C(C)(C)SSC[C@@H](C(N)=O)NC(=O)[C@@H]2CCCN2C(=O)[C@H](Cc2ccc(O)cc2)NC1=O
B6: Peptide No. 96 (peptide)
peptide: QR[dF][Pen]TGHFGGLYPCNGP-NH2
modifications: disulfide 4-14; N-terminus assumed
SMILES: CC(C)C[C@@H]1NC(=O)CNC(=O)CNC(=O)[C@H](Cc2ccccc2)NC(=O)[C@H](Cc2c[nH]cn2)NC(=O)CNC(=O)[C@H]([C@@H](C)O)NC(=O)[C@@H](NC(=O)[C@@H](Cc2ccccc2)NC(=O)[C@H](CCCNC(=N)N)NC(=O)[C@@H](N)CCC(N)=O)C(C)(C)SSC[C@@H](C(=O)N[C@@H](CC(N)=O)C(=O)NCC(=O)N2CCC[C@H]2C(N)=O)NC(=O)[C@@H]2CCCN2C(=O)[C@H](Cc2ccc(O)cc2)NC1=O

Assays:
[1] = molecular target: T1, soluble human FcRn (shFcRn) (human, UniProt P55899 24-297; P61769 21-119); assay: IgG competition ELISA
T1 construct: Biotinylated for the ELISA, amine-coupled to a CM5 chip for SPR; also called biotinylated shFcRn
Experimental: (§1) The wells were coated with 100 μl/well of 1 μg/ml biotinylated-shFcRn in Buffer A. The plate was sealed and incubated at 37° C. for 2 hours. Afterwards, the plate was washed with 200 μl/well of Buffer B (Buffer B: 100 mM MES pH 6, 150 mM NaCl, 0.5% BSA IgG-free (Jackson ImmunoResearch, West Grove, Pa.), 0.05% Tween-20). […] To allow for mixing, the plate was rocked for 2 minutes, sealed and incubated at 37° C. for 2 hours. […] The plate was covered, incubated for 30 minutes at room temperature and washed 4 times with 200 μl/well of ice-cold buffer B. SureBlue TMB substrate solution (100 μl/well, KPL, Gaithersburg, Md.) was added and the plate was allowed to incubate at room temperature until color developed, which took 5 to 10 minutes. Once color developed, 100 μl/well of TMB stop solution (KPL, Gaithersburg, Md.) was added and the absorbance was measured at 450 nm. The data was plotted as absorbance vs. peptide concentration to derive the inhibitory concentration 50% (IC₅₀) values.

[2] = molecular target: T1, soluble human FcRn (shFcRn); assay: SPR pH 6
Experimental: The following steps were performed to cross-link soluble human or cynomolgus FcRn to the dextran surface of a CM5 sensor chip (Biacore AB, Uppsala, Sweden) by an amine coupling reaction involving 1-ethyl-(3-dimethylaminopropyl)-carbodiimide hydrochloride (EDC) (Biacore AB, Uppsala, Sweden) and N-hydroxysuccinimide (NHS) (Biacore AB, Uppsala, Sweden) as recommended by Biacore (BIAapplications Handbook, version AB, section 4.2, Biacore AB, Uppsala, Sweden). […] Residual sites on the FcRn flow cell were blocked with 1 M ethanolamine hydrochloride pH 8.5 (Biacore AB, Uppsala, Sweden). A control flow cell was blocked with ethanolamine for reference subtraction. For analysis of the monomeric peptides, FcRn was coated to a final density of 4000-5000 response units (RU). For analysis of the peptide dimers, FcRn was coated to a density of 2000-2500 RU. All SPR measurements were performed using a BIACORE 3000 Instrument (Biacore AB Uppsala, Sweden). For measurements done at either pH 6 or pH 7.4, experiments were performed in 50 mM phosphate, 100 mM sodium chloride, 0.01% surfactant P20 (Biacore AB, Uppsala, Sweden).
Ten, 2-fold dilutions of the peptide were injected over the FcRn-CM5 chip at a rate of 20 μl/min for 2 min. The peptide was dissociated from the chip for 2.5 minutes with buffer. Any remaining peptide was removed from the chip with a 30 second injection of HBS-P buffer (Biacore AB, Uppsala, Sweden) at a rate of 30 μl/min. Sensorgrams were generated and analyzed using BiaEval software version 3.1 (Biacore AB, Uppsala, Sweden). The equilibrium RU observed for each injection was plotted against concentration. The equilibrium KD values were derived by analysis of the plots using the steady state affinity model included in the BiaEval software.

[3] = molecular target: T1, soluble human FcRn (shFcRn); assay: IgG competition ELISA; remark: listed apart in the source
Experimental: as §1

[4] = molecular target: T1, soluble human FcRn (shFcRn); assay: IgG competition ELISA; remark: listed apart in the source
Experimental: as §1

[5] = molecular target: T1, soluble human FcRn (shFcRn); assay: IgG competition ELISA; remark: listed apart in the source
Experimental: as §1

T1 sequence (P55899 24-297 limits assumed, chain 1 of 2): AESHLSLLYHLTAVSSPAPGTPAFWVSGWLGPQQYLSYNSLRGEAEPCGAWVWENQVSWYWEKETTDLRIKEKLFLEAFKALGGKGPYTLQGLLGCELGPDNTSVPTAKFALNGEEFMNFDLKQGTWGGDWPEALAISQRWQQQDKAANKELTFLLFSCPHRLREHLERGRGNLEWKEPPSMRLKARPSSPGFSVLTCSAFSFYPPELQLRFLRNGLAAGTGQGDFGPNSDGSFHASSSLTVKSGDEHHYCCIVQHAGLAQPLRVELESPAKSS
T1 sequence (P61769 21-119 limits assumed, chain 2 of 2): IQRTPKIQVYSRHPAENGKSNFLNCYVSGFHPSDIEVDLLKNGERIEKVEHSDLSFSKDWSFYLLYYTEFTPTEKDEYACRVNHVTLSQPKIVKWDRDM

Binder	IC50 [1] [nM]	Kd [2] [nM]	further results
B1	2400		
B2	1500		
B3		760	
B4		1000	IC50 [3]: 5500 nM
B5			IC50 [4]: 2000 nM; IC50 [5]: 2000 nM
B6	11400		
